# The DeepSol protein solubility set
# Assay: soluble on expression in E. coli; label from the status in PepcDB or PDB records
row,Sequence,soluble on expression in E. coli
1,MGSDKIHHHHHHMIKMRIKPLEEYRIGLRQSSGIVIENVDVISAFPSPTTILGIIGAMKNAKPSQLSGIDDLREAYTSLTGNNTLSGDCDSSDNPLIWGPLIKEKDNKIYTPLFFNKLILDPIEYVKTSLNENVKVQSESLVKEIGIQIRRMNQMNRGSRNTIHLFYQKFFGSNYELEYCINIDDLKKLVKENVVALGGENRYARVRIDNGNCNFGNGNYAILLQPLLFESDSEYFVRLDNVKGLGCIDEIYGVLVEKGNKIDFNNFKVKVVYYALGYGNERRPMLQALPPGTVIKVKETCNNAKALGLLSELGFGAIYRVDPGNR,not soluble
2,MGSDKIHHHHHHMPQITIIVPVYNAERTLERCVRSIQAQTVVNWELLLIDDGSEDYSSKLCDEYAIQDSRIRVFHQVNGGASSARNVGLEYTKGEWVVFCDSDDWVDSNWLELFKNQIDNGTELIVQGFIPHGNLWQSRTGINFHGNVKTGILKLQEENILGFMCTKMYKREIIEQCGLRFDTELVLREDELFMLQYAEYISTIQCMEEGAYHYDMPDFSTKYGNIDLFNMFLKIYVVLKRIFSGEDNLLLQNYENDLTQSLFHSFVMRHDDRCKKLENYRKEVGKRVLGVKSLSQFSKYILAYVPSFQVAYLLLEAKAKIVKSMQ,not soluble
3,MGSDKIHHHHHHMHDVLIIGSGVIGMSIARHLSATHLDVAVIDRDVPGKHASYKAGGMLGAQNEFTEDSDLFQLAIESRAMFPQLSKSLLDETGIDIQFKNSGLIKIANEHDDISSIKRQYQFLNSQDRSVKQLSDDDLLQLTHGEVKPSYAAIHIPHDGQINAHHYTLALLESMKLRDIKRYESTEVTSIERHNGYYSVKTDQSSTIEAHKIIVAGGAWSSQLLTQYHLQRQVIGVKGEVILLENNDLSLTETLFMTNGCYIVPKQPNRFLIGATSEFNNYSVGTTDEGMDWLLRHAYHRVPQLKDSHILKKWSGVRPYTEKEMPVMDQIDDGLYVISGHYRNGILLSPIIGRDIANWLLSGIKPSRYSSFTVTRRNNHEVYH,not soluble
4,QKSNRKDYSLTMQSSVTVQEGMCVHVRCSFSYPVDSDTDSDPVHGYWFRAGNDISWKAPVATNNPAWAVQEETRDRFHLLGDPQTKNCTLSIRDARMSDAGRYFFRMEKGNIKWNYKYDQLSVNVTALTHRP,soluble
5,MIIVSRAIVLHNTAYNDSYSIAHLFSRESGRVSYLIPRSSKRGKSGGSLRLLISPLNELEITAEHKQHRDLHFIKEAKLCSLHGRIQSDPVRNSIALFLAEFLYLILRLPEADTNLYDFVAFSIDKLEEMDGPMANFHLAFLFRLLVPLGLIPDLQFGGSVIPRWFDPADGRFVPNAPAHGRGIPPHQSTYLQLFSRITFDNMKAFRLSRAERRQVLDYLVDYYRFHLPPFPLLKTPDILSTLFD,not soluble
6,MSLFLSNVILHQLRKNDNDELVVNYRAESLRNDTSTENLVAELHRVFNAKAGKGFGCFKSDSEFQLWLQEMRRGTLPFYEFSQQSAQRLKNELAKYPFADEGILVMAEYQSLATDYLFIGLLPLNQSLKVTEGLDISATDYLDINKMDIVARIDLSSYETDKESKRYLSYIKGRVGRKVADFFLDFLQADIGLDTKQQNQVLMQAVEDFCADAKFEKEEVISYKKQVYEYCNDQIKAGDEVRVQELSGELPPSNEGVNFFDFTREQGYQLEESFPADRSTVRKLTKYVGAGGGLNLSFDSLLLGERVFYDPETDTLTIKGTPPNLEHHHHHH,not soluble
7,MGPSRWPRGGGRLLGRLYLVVTPRPGWSLEATLDRTERALAGGVEVVQLRAKDWEARPTLALGERMLALARRYGVPFFLNDRPDLAALLGADGVHLGQNDLTPEEARRFFAGMVGRSTHAPEQALRALEEGVDYLSVGPVWETPTKPGRPAAGLAYVRWAAENLGEKPWYAIGGIDLGNLDQVLEAGARRIVVVRAILDAPDPERAARALRERLYGVA,soluble
8,SEKYNSLSDFLKEFYIPTYVLSAETEEEEEEESRPTPASPVLVFINSKSGGQLGGELILTYRSLLNHNQVFDLDQETPDKVLRRIYLNLERLKDDDFARQIREKLKIIVAGGDGTAGWLLGVVCDLKLSHPPPIATVPLGTGNNLPFAFGWGKKNPGTDRTAVESFLEQVLKAKVMKIDNWHILMRMKTPKEGGSCDPVAPLELPHSLHAFHRVSPTDELNKEGCHTFRGGFWNYFSLGMDAQISYAFHSERKLHPEKFKNQLVNQSTYVKLGCTQGWFCASLFHPASRNIAQLAKVKIATRNGQWQDLHIPHSIRSIVCLNLPSFSGGLNPWGTPNPRKQRDRGLTPPFVDDGLIEVVGFRNAWHGLVLLAPNGHGTRLAQANRIRFEFHKGATDHTFMRMDGEPWKQPLPLDDETVMVEISHLGQVNMLATHDCRSRSVFDPSTPRHQDGAEDYDDNEDDSVAEGEEFRKFGAADTFKIPDEVDISQLS,soluble
9,GPGSMTDRLTAEDVFYELSTIRDPERPDCTLADLDVVAMNRCRVEYIESSADFQSLRGQGCNDSGKPSVVVKVILQPTVPHCSLMEFICLCVYVRLREVFSLSNNAKFDITLVDGSHVRQRELEKQVADKERLAAAMEDKALLQEVERHINCE,soluble
10,MGKIFCIVQARMGSERLQGKVIKPILKKPMVIYTLDRLKKSKYIDKIVLATSSMERETPLVESCEEYGYDVFKGSEANVLKRYEQAAEKYGANIEDAVIRVTGDCPLIDPIIVDNVVTKFLSSDYDYVRLDVPNTFVRGFDVEIFSMKALKTVNSLINGGKIPKEEADMYKEHVTLYMYKHPNEFKVGYVKGDEFYSKDYRLCVDTKEDFELVKNIYEHFNDEFVSSKNVINYLDRNSEIAQINNDIKQKEVLEHHHHHH,soluble
11,MKATSEELAIFVSVVESGSFSRAAEQLGQANSAVSRAVKKLEMKLGVSLLNRTTRQLSLTEEGERYFRRVQSILQEMAAAESEIMETRNTPRGLLRIDAATPVVLHFLMPLIKPFRERYPEVTLSLVSSETIINLIERKVDVAIRAGTLTDSSLRARPLFNSYRKIIASPDYISRYGKPETIDDLKQHVCLGFTEPASLNTWPIACSDGQLHEVKYGLSSNSGETLKQLCLSGNGIACLSDYMIDKEIARGELVELMADKVLPVEMPFSAVYYSDRAVSTRIRAFIDFLSEHVKTAPGGVMPIS,not soluble
12,MAHHHHHHMASTGNGGDSKAAASSLSPQKAGMVAPLTSAPPLTASTTSPSRLNSMRTANASASSKNNAPTGPSKKGGTAVKPSPEVGGKAAAGSSEPEPRASVNIDRQSKPNANSVNASNVADSTNAPSGKRPDHGRRGRRQECSSWFDAEKPAKADRPADKELNQNVQIVQDDIPDAEQAHREQAERAQRQKEKLARHISESPTGFQATLPRLNELDVTNSWDKLLRMMRSEFDMSCLTSCLARELDEDVAWNPEMLLVQLTSDMLDAAELQKDGGEAYVPVDASDIGQMTGGEVARRRKEKRSTTTAGGAAPAAGAAGGTEREPEKGSEKPAAASPTPAFQAAASKALRKQTTTDPAAAAPSSKKARDTDNAASTSTANSSSTRKRSAAGSRSGEASGGGGNNTNASSSTAKGDSADDTKSSKSTSLKAQVSKLFSK,not soluble
13,MGHAHSSSSNGSSQITANPHDEKTKEKVEKLFRQNNRTNRSRSLDNRTQEKLPNRPVGSSHSARFPKTRHIPVPLQGPRKSEEGPNGSISGLSRDDKRIIETCWFKCSQKQLRKCSCDMFWDILHTDEDILRLFRLDHVAPNRLKDNDYFKSHASNLALVLNLVVTNLQDNFDQAQDALQALGYQHLHLIDRTHFQTMYWDIFTDCFERNPPPSFKKGAEREVALKFHRF,not soluble
14,MNQLVCPLCCETLKEEGAHFYKHFKYKRYACGESTCDMGFYTQQELNAHCSKHGHKRSFQKTVNPYIDKMISVVVEDAYALATDDMETVLEKRWGRDPRSVSPTSPVKKTPTDSAKNKRSSVVTPTSPPVPKKAKSGTSTTSPFAFLNRRTNNSESSLCPNASSTSAQPASSSSAQAIVDSTTSEHNISIDKTKKPRKKRNESMTAAQNQEKAGKNANYDEMSAIDKLIGWFDPNVPERRDAAKVKCAVCNEEIVYDFILRKGHVTRSHMAADVAPEDYDDLLKTAMDRSYPDLPNSDLACQLCMTGAEVRKNMRREHIEKLHTTSLPPLTCPVGECEKGFRRQCDLSSHMKDTHKASMAVYKNATFQQVRRRRNAMINEMINKCFPWSRLEAIENKTVVGEKSDSVNRAPVDRSFDTDVRVRDVNKTRRAPQYNANRSSSSDSDSEHEEAASVATGEVSETGGTDDFPQDVIYICHQFNTEVAQKLSQIVRIKPEIIDVEDVLMNDVTMEINEIPVKEETEEEQPKEENNSTLPSIPIPSIFSPYEPIVPPPATSPDPMNPPIASLLPTRILSATNVLENKYNENVSSRRSTSRERSSNRNYDERWSRNDYSNPRNYSNRSFHQRNQRGHSSSNRFNSPFVSRNNYNNNSETTEGSSRRSEYNSSSSNHHSRSSYRGNRDDRGSRW,not soluble
15,MKLTVVGLGYIGLPTSIMFAKHGVDVLGVDINQQTIDKLQSGQISIEEPGLQEVYEEVLSSGKLKVSTTPDASDVFIIAVPTPNNDDQYRSCDISLVMRALDSILSFLEKGNTIIVESTIAPKTMDDFVKPVIENLGFTIGEDIYLVHCPERVLPGKILEELVHNNRIIGGVTEACIEAGKRVYRTFVQGEMIETDARTAEMSKLMENTYRDVNIALANELTKICNNLNINVLDVIEMANKHPRVNIHQPGPGVGGHCLAVDPYFIIAKDPENAKLIQTGREINNSMPAYVVDTTKQIIKVLSGNKVTVFGLTYKGDVDDIRESPAFDIYELLNQEPDIEVCAYDPHVELDFVEHDMSHAVKDASLVLILSDHSEFKNLSDSHFDKMKHKVIFDTKNVVKSSFEDVSYYNYGNIFNFIDK,not soluble
16,MGSDKIHHHHHHMQMNLGLDVGYGDVKAVYQREGILEMLKFPTAIAYAEREVGDLSAFAGGEEYEYRGRKYFVGREALVGAFSTRSFEFMKRYSPLFVFKAVKKIHRRTGELVTDVAMGLPLSHYTEANLKELVPLLQRIEVGREVLELNARFYPQGLGVLADYRLSQAGDVNARTDRDMIILDIGFNTVDVIVVERGRIVKGESDTLERHGVSKISLDLAREIKVRMQLDLSEQESKDVLRQGRIRVYGAERDLAELVRESAEKYMDWLIQEVHSKWMARIQRAEKVIIAGGGAYYLQEHIPEEYLPLVHVPDHPEYANARGFLKALDVESGK,not soluble
17,MVDQQDTFAEYFKNWYIFYKKPKVSKVTLNRYQYTYNVINEYFGNKLLKDITRANYQKFIVKYGQNHSPNTMKMINNCIKACVKNAVYDEEIKKDFTYNIELISNRDNVVQLEHHHHHH,soluble
18,MQNNNEFKIGNRSVGYNHEPLIICEIGINHEGSLKTAFEMVDAAYNAGAEVVKHQTHIVEDEMSDEAKQVIPGNADVSIYEIMERCALNEEDEIKLKEYVESKGMIFISTLFSRAAALRLQRMDIPAYKIGSGECNNYPLIKLVASFGKPIILSTGMNSIESIKKSVEIIREAGVPYALLHCTNIYPTPYEDVRLGGMNDLSEAFPDAIIGLSDHTLDNYACLGAVALGGSILERHFTDRMDRPGPDIVCSMNPDTFKELKQGAHALKLARGGKKDTIIAGEKPTKDFAFASVVADKDIKKGELLSGDNLWVKRPGNGDFSVNEYETLFGKVAACNIRKGAQIKKTDIE,soluble
19,MAPKSILITGANRGIGLGLLKQFIKNKDVQIIIGTCRDPSNATELNSIKDTRVHILQLDIDCDDSIRKLGAEVEKLVGEDGLTVLINNAGIFVPYDIDGEKSRSTLIRQLETNTISTVLITQELLPLLKRAAAKNRGEGYSINRSAIINISSTAGSITKIDASYNIPLVAYRMSKSALNSFGKSCSVDLAKYHILVTTFCPGWVKTDMGGANGKLEIDDATKTLSDNILILGDAHHGAYLNADLTVIPN,soluble
